Results taken from the supplement of paper PMC10899765.

Columns and labels:
Conditions in all cases: 20 nM; 72 h
MCF10A [1] = assay: percent viability (nuclei count relative to siNT); higher = more viable cells
Procedure: (§1)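 After 72 h, cells were fixed and stained with Hoechst and anti-fibrillarin, and nucleoli per nucleus were counted with CellProfiler. Values are plate-adjusted percent effect for the one-nucleolus and 5+ nucleoli phenotypes, normalised to siNT (0%) and to the positive controls siNOL11 or siKIF11 (100%), as the mean of biological triplicates. Percent viability is the nuclei count relative to siNT.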

MCF10A [2] = assay: 5+ nucleoli phenotype percent effect (relative to siNT 0% and siKIF11 100%); higher = more cells with five or more nucleoli
Procedure: as §1

MCF10A [3] = assay: one-nucleolus phenotype percent effect (relative to siNT 0% and siNOL11 100%); higher = more cells with one nucleolus (ribosome biogenesis inhibition)
Procedure: as §1

| Sequence | percent viability (MCF10A [1]) | 5+ nucleoli phenotype percent effect (MCF10A [2]) | one-nucleolus phenotype percent effect (MCF10A [3]) |
| --- | --- | --- | --- |
| CUAGUGAGGGACAGAACCAGGAUUC [hsa-miR-921] | 48.8% | -15.6% | 31.9% |
| CUGUACAACCUUCUAGCUUUCC [hsa-let-7c-3p] | 74.2% | -7.45% | -4.89% |
| UCUUUUCUUUGAGACUCACU [hsa-miR-627-3p] | 34.1% | 21.8% | -15.6% |
| GCAGCAGAGAAUAGGACUACGUC [hsa-miR-922] | 108% | 9.43% | -15% |
| UUGCCAGGGCAGGAGGUGGAA [hsa-miR-5006-5p] | 69.9% | -13.7% | 0.389% |
| UACCAUUAGAAGAGCUGGAAGA [hsa-miR-6512-5p] | 78.6% | 11% | 1.01% |
| UGGGCGAGGGGUGGGCUCUCAGAG [hsa-miR-4649-5p] | 45.5% | 19.2% | 1.85% |
| UUUUGCGAUGUGUUCCUAAUAU [hsa-miR-450a-5p] | 65.3% | 13.7% | 3.94% |
| CCAGAGGUGGGGACUGAG [hsa-miR-4257] | 24.6% | 1.69% | 22.3% |
| GCAGUUCUGAGCACAGUACAC [hsa-miR-4277] | 210% | 31.2% | -25% |
| UAAAACCCACAAUUAUGUUUGU [hsa-miR-548as-3p] | 149% | -6.8% | 25.3% |
| UAGGGGAAAAGUCCUGAUCCGG [hsa-miR-6783-5p] | 78.4% | 18.2% | -20.2% |
| CACCCGUAGAACCGACCUUGCG [hsa-miR-99b-5p] | 62.9% | -9.05% | 21.8% |
| UCACCUGACCUCCCAUGCCUGU [hsa-miR-3622a-3p] | 103% | 33.1% | -15.8% |
| UUCUUUGUUUUUAAUUCACAG [hsa-miR-6844] | 70% | 8.6% | -15.7% |
| GCCCGCGUGUGGAGCCAGGUGU [hsa-miR-1471] | 97.1% | 49.2% | -18.2% |
| UAGUACUGUGCAUAUCAUCUAU [hsa-miR-1278] | 73.4% | -12.8% | -1.62% |
| CAAGAACCUCAGUUGCUUUUGU [hsa-miR-548b-3p] | 83.5% | 39% | -16.6% |
| UUGCACUCUGGCCUUCUCCCAGG [hsa-miR-7703] | 25% | -11.1% | 23% |
| CUCUGAUCGCCCUCUCAGCUC [hsa-miR-3192-3p] | 34.9% | -48.8% | 57.6% |
| GAAGGACACUGGUGUCAACGGCU [hsa-miR-8080] | 118% | 19.9% | -9.1% |
| UGGCAGGGAGGCUGGGAGGGG [hsa-miR-1207-5p] | 24.4% | -30.5% | 24.5% |
| UGCCCUAAAUGCCCCUUCUGGC [hsa-miR-18b-3p] | 98.8% | -9.28% | -2.3% |
| GGUGGGGGGUGUUGUUUU [hsa-miR-4472] | 40% | 11.6% | 9.55% |

| Sequence | percent viability (MCF10A [1]) | 5+ nucleoli phenotype percent effect (MCF10A [2]) | one-nucleolus phenotype percent effect (MCF10A [3]) |
| --- | --- | --- | --- |
| AUACUGUGAAUUUCACUGUCACA [hsa-miR-4693-5p] | 53.9% | -20.3% | 2.95% |
| UCUGUGAUAGAGAUUCUUUGCU [hsa-miR-4679] | 103% | 8.51% | -10.8% |
| UAUGUGACCUCGGAUGAAUCA [hsa-miR-4501] | 19.8% | -23.6% | 40.8% |
| AAUGCACCCGGGCAAGGAUUCU [hsa-miR-501-3p] | 48.2% | -14.1% | 10.8% |
| UGAUGGAGCUGGGAAUACUCUG [hsa-miR-8082] | 22.3% | -14.2% | 21.8% |
| CGCGCCUGCAGGAACUGGUAGA [hsa-miR-6720-3p] | 57.7% | 71.3% | -13.6% |
| CGCACCUGCCUCUCACCCACAG [hsa-miR-6804-3p] | 74.2% | 33.2% | -33.9% |
| GGUCUAGGCCCGGUGAGAGACUC [hsa-miR-8078] | 21% | 10% | -3.5% |
| AAGAUGUGGAAAAAUUGGAAUC [hsa-miR-576-3p] | 48% | -7.01% | 17.9% |
| GGGCGACAAAGCAAGACUCUUUCUU [hsa-miR-1273a] | 78.8% | -17.3% | 6.41% |
| UCUGAGGUGGAACAGCAGC [hsa-miR-7162-3p] | 27.2% | -23% | 19.5% |
| CUCCGGGACGGCUGGGC [hsa-miR-4497] | 67.6% | 0.934% | -8.42% |
| AGCAGGUGCGGGGCGGCG [hsa-miR-3665] | 33% | -20.8% | 40.6% |
| AAUGCACCUGGGCAAGGAUUCA [hsa-miR-502-3p] | 38.5% | -10.4% | 0.707% |
| AUCACAUUGCCAGGGAUUUCC [hsa-miR-23a-3p] | 126% | -6.74% | -9.26% |
| ACGGAAUAUGUAUACGGAAUAUA [hsa-miR-3669] | 95.9% | 30.9% | -9.77% |
| ACUCCAUUUGUUUUGAUGAUGGA [hsa-miR-136-5p] | 107% | 34.2% | -13% |
| AGGGUAAGCUGAACCUCUGAU [hsa-miR-555] | 32.4% | -11.2% | 17.6% |
| CUUAGACUGCCAGACUCCCUGA [hsa-miR-7702] | 163% | 59.3% | -29.9% |
| UAAUGCCCCUAAAAAUCCUUAU [hsa-miR-365a-3p] | 89.5% | 6.01% | 2.74% |
| CUGGACUGAGCCGUGCUACUGG [hsa-miR-1269a] | 52.7% | -26.1% | 6.41% |
| AGAAGGAAAUUGAAUUCAUUUA [hsa-miR-1252] | 148% | 32.3% | -13.6% |
| UCCCUGCCCCCAUACUCCCAG [hsa-miR-6752-3p] | 28.7% | -28.9% | 14.5% |
| UUGCUUGAACCCAGGAAGUGGA [hsa-miR-1273e] | 29% | -48.1% | 53.6% |
